Publication PMC4822156, “Structural basis for ligand-dependent dimerization of phenylalanine hydroxylase regulatory domain” (Scientific Reports, 2016)

Target: the molecule itself
Assay: SEC-MALS; hTH-RD in the absence of amino acid ligand (Supplementary Fig. S2C)

B1: regulatory domain of human tyrosine hydroxylase (hTH-RD), residues 65-160 (domain or fragment, UniProt P07101 96-191, looked up)
chain: GDPLEAVAFEEKEGKAVLNLLFSPRATKPSALSRAVKVFETFEAKIHHLETRPAQRPRAGGPHLEYFVRLEVRRGDLAALLSGVRQVSEDVRSPAG
notes: tyrosine hydroxylase (TH), human, regulatory domain, residues 65-160; which isoform the numbers count on is told only by GenBank number 88900503; Vector pFB-Lic-Bse; source: insect sf9 cells, purified (as the PAH domains); not shown: His6, N-terminal, cleaved
stoichiometry N: 2
